# B1: C. sinensis TK whole (CsTK D1D2) (Clonorchis sinensis) (protein)
# chain: MQVEPLKSLQQKIVNDEANRSFTKKHLTNRIVDLYADKKTSFGGSLAQCVSHNARNPRCILPRACDLDAYEAFREFFDAVIIDYHKVKGDKITHPKSDFGDLKSLNFKDLNADGNMVVSTRVRLGRTVAGYGFCPTISNEQRLELEKKISTALKDLSGEFKGTYYPLTGMKEEDRKKLVEKHFLFRDDDSVLRDAGGYIDWPNGRGIFINEKENFLVWVNEEDHIRVISMQKGGDLIAVYKRLANAISELGKSLTFATNDRFGFITFCPSNLGTTLRASVHARVPYLSALPNFEQICEKYNIQARGTHGEHTASVGGVYDLSNKRRLGLTEIEAVTEMYNGVQALLDLEKQLAAYNKDAPAGVMPVEPLTYLSHLLEAADPVKNYTRKHLTPEIIKKYDGVRTTHGATLAHMVRNGAYNPHSICPRTGEAECYTKFVDYLDAVILDYHGVSDPAFKHPPPTFGDLNNLPFGDVDPEGKFVVSTRVRVGRSVDGFLFSTIMSKQDRLDLETKVSTALKSLTGDHAGSYYPLANMSEATRKQLVEDHFLFKNDDPVLRDAGGYRDWPHGRGIFHNANKTFLVWLCEEDHMRIISMQKGGDLAAVYKRLIQGIQAIEKTLPFAHSDKYGYITCCPSNLGTTMRASVLLKIPKLSAQKAKLDEVCAKYRLQARGLHGEHTESPEGIHDISNKRRLGLTELEAAKEMADGVAQMIAIEKSLP
# notes: full-length contiguous two-domain enzyme, 717 residues, 80,274 Da; MBP fusion (pMAL-c2), E. coli TB1, amylose resin; 120 kDa with MBP
# B2: C. sinensis TK D1 (CsTK D1) (Clonorchis sinensis) (protein)
# chain: MQVEPLKSLQQKIVNDEANRSFTKKHLTNRIVDLYADKKTSFGGSLAQCVSHNARNPRCILPRACDLDAYEAFREFFDAVIIDYHKVKGDKITHPKSDFGDLKSLNFKDLNADGNMVVSTRVRLGRTVAGYGFCPTISNEQRLELEKKISTALKDLSGEFKGTYYPLTGMKEEDRKKLVEKHFLFRDDDSVLRDAGGYIDWPNGRGIFINEKENFLVWVNEEDHIRVISMQKGGDLIAVYKRLANAISELGKSLTFATNDRFGFITFCPSNLGTTLRASVHARVPYLSALPNFEQICEKYNIQARGTHGEHTASVGGVYDLSNKRRLGLTEIEAVTEMYNGVQALLDLEKQLAAYNKDAP
# notes: truncated N-terminal domain D1 (360 residues of the 717-residue two-domain protein, 40,573 Da); MBP fusion (pMAL-c2), E. coli TB1, amylose resin; about 80 kDa with MBP
# B3: C. sinensis TK D2 (CsTK D2) (Clonorchis sinensis) (protein)
# chain: AGVMPVEPLTYLSHLLEAADPVKNYTRKHLTPEIIKKYDGVRTTHGATLAHMVRNGAYNPHSICPRTGEAECYTKFVDYLDAVILDYHGVSDPAFKHPPPTFGDLNNLPFGDVDPEGKFVVSTRVRVGRSVDGFLFSTIMSKQDRLDLETKVSTALKSLTGDHAGSYYPLANMSEATRKQLVEDHFLFKNDDPVLRDAGGYRDWPHGRGIFHNANKTFLVWLCEEDHMRIISMQKGGDLAAVYKRLIQGIQAIEKTLPFAHSDKYGYITCCPSNLGTTMRASVLLKIPKLSAQKAKLDEVCAKYRLQARGLHGEHTESPEGIHDISNKRRLGLTELEAAKEMADGVAQMIAIEKSLP
# notes: truncated C-terminal domain D2 (357 residues of the 717-residue two-domain protein, 39,719 Da); MBP fusion (pMAL-c2), E. coli TB1, amylose resin; about 80 kDa with MBP
# Columns and labels:
# Experiment in all cases: purified protein
# Format in all cases: biochemical, Clonorchis sinensis
# N=C(N)NCCS(=O)(=O)O = conditions: co-substrate ATP, Mg-acetate, Tris-HCl pH 8, 25°C
# purified protein [1] = substrate: Nc1ncnc2c1ncn2[C@@H]1O[C@H](COP(=O)(O)OP(=O)(O)OP(=O)(O)O)[C@@H](O)[C@H]1O; conditions: co-substrate taurocyamine, Mg-acetate, Tris-HCl pH 8, 25°C
# purified protein [2] = substrate: N=C(N)NCCS(=O)(=O)O; conditions: co-substrate ATP, Mg-acetate, Tris-HCl pH 8, 25°C; remark: listed apart in the source
Molecule,Km (N=C(N)NCCS(=O)(=O)O) [µM],kcat (N=C(N)NCCS(=O)(=O)O) [s⁻¹],kcat/Km (N=C(N)NCCS(=O)(=O)O) [M⁻¹ s⁻¹],Km (purified protein [1]) [µM],kcat (purified protein [1]) [s⁻¹],Km (purified protein [2]) [µM],kcat (purified protein [2]) [s⁻¹],kcat/Km (purified protein [2]) [M⁻¹ s⁻¹]
C. sinensis TK D1 (CsTK D1) (Clonorchis sinensis; I60A),510 ± 70,22.43 ± 0.38,44000,,,,,
C. sinensis TK D1 (CsTK D1) (Clonorchis sinensis; R58A),850 ± 60,33.03 ± 1.14,38900,,,,,
C. sinensis TK D1 (CsTK D1) (Clonorchis sinensis; Y84A),820 ± 70,32.90 ± 1.54,40100,,,,,
C. sinensis TK D2 (CsTK D2) (Clonorchis sinensis; H421A),360 ± 70,5.92 ± 1.23,15600,,,,,
C. sinensis TK D2 (CsTK D2) (Clonorchis sinensis; I423A),300 ± 50,6.46 ± 0.45,21500,,,,,
C. sinensis TK D2 (CsTK D2) (Clonorchis sinensis; Y447A),3640 ± 210,6.45,1770,,,,,
C. sinensis TK D2 (CsTK D2) (Clonorchis sinensis; Y447R),3010 ± 250,0.99 ± 0.52,330,,,,,
C. sinensis TK whole (CsTK D1D2) (Clonorchis sinensis; R58A),450 ± 190,15.00 ± 0.25,33300,,,,,
B1,,,,780 ± 70,17.78 ± 0.98,490 ± 20,17.78 ± 0.98,36300
B2,,,,460 ± 120,22.59 ± 0.15,350 ± 10,22.59 ± 0.15,54500
B3,,,,750 ± 130,4.50 ± 0.11,480 ± 50,4.50 ± 0.11,9380

# Source: publication PMC3836730, “Molecular Cloning and Characterization of Taurocyamine Kinase from Clonorchis sinensis: A Candidate Chemotherapeutic Target” (PLoS Neglected Tropical Diseases, 2013)
